In patent US20240368267A1 (KODIAK SCIENCES, published 2024):

Experiments:
[1] = molecular target: T1, recombinant human IL-6 (human, UniProt P05231 30-212); test: Biacore, Fab lysate over IL-6 chip, 25 C
T1 construct: bought protein; also called interleukin-6
Procedure: Fab libraries were constructed containing random single point mutations for all 71 CDR positions, excluding substitutions for Cys, Met and Asn due to the chemical liabilities associated with these amino acids. Small-scale expression in 96 well plates format was utilized for screening the Fab libraries. E. coli colonies (TG1 cells, Zymo Research) containing randomized single point mutations were picked into 96 well plates (1.5 mL) and grown overnight at 30° C. in LB Amp+2% glucose. A separate 96 well plate was created on the following day by removing 100 μL of culture and adding 100 μL of 30% glycerol, then stored at −80° C. The remaining culture was spun down for 20 min and later resuspended in 1.5 mL of LB Amp containing 1 mM IPTG for induction of protein expression at 30° C. After 5 hours, cells were spun down, resuspended in 500 μL of HBS-EP+ buffer and lysed by one freeze/thaw cycle. Lysates were centrifuged for 30 minutes and vacuum filtered (200 μL) into round bottom 96 well plates for Biacore analysis.
Three ranges of antigen density (100-150 RU, 300-400 RU, 400-600 RU) were obtained by using variable flow times for each chip channel, later blocked with ethanolamine. Supernatants of the 96-well filtered culture lysates were injected at […] for 120 seconds. Fitting of dissociation curves (300 seconds) to single exponential decay curve was used for the determination of dissociation rates (koff). Chip surfaces were regenerated with 10 mM Glycine pH 1.7 solution injected at 50 μL/min during 60 seconds after every cycle of sample binding and dissociation.

[2] = molecular target: T2, human IL-6 (human, UniProt P05231 30-212); test: SPR (Biacore T200), purified antibody captured on Protein A, IL-6 flowed over, 37 C
T2 construct: also called interleukin-6
Procedure: (§1) Antibodies were captured on a Protein A chip (GE) by injecting 1:20 cell supernatant dilutions at 10 μL/min for 60 seconds. […] The sensor chip was regenerated by a 60 seconds injection of 10 mM Glycine pH 1.7 at the flow rate of […]. […] For this setup, 1 μg/mL of purified antibody was injected over a Protein A chip at 10 μL/min for 25 seconds. […] The sensor chip was regenerated by a 60 seconds injection of 10 mM Glycine pH 1.7 at flow rate of 50 μL/min. Data analysis for supernatant and purified samples were performed using BIAevaluation software (GE). All sensorgrams were double reference subtracted and fit using a 1:1 Langmuir binding model.

[3] = molecular target: T2, human IL-6; test: SPR (Biacore T200), antibody from cell supernatant captured on Protein A, IL-6 flowed over, 37 C
Procedure: Those four positions were selected based on their tolerance for mutations as observed in bacterial and mammalian screens. […] These cultures were centrifuged and supernatants containing secreted antibodies were harvested and diluted in HBS-EP+ running buffer (1:20 ratio).
as §1

T1 sequence (P05231 30-212 limits assumed): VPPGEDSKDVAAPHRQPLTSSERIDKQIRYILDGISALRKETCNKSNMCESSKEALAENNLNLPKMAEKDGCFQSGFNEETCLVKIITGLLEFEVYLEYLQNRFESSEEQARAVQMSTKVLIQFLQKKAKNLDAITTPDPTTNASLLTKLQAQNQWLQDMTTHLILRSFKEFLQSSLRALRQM
T2 sequence (P05231 30-212 limits assumed): as above

koff [1] [s⁻¹] | Kd [2] [nM] | koff [2] [s⁻¹] | kon [2] [M⁻¹ s⁻¹] | Kd [3] [nM] | koff [3] [s⁻¹] | kon [3] [M⁻¹ s⁻¹] | Binder
0.00401 |  |  |  |  |  |  | anti-IL-6 Fab, heavy chain A105K (Fab, V domains shown, built as m22 plus the named change) VH: EVQLVESGGGLVQPGGSLRLSCAASGFTFSPFAMSWVRQAPGKGLEWVAKISPGGSWTYYSDTVTGRFTFSLDTSKSTAYLQMNSLRAEDTAVYYCARQLWGYYKLDIWGQGTLVTVSS VL: DIQLTQSPSSLSASVGDRVTITCSASISVSYMYWYQQKPGKAPKLLIYDMSNLASGVPSRFSGSGSGTDFTLTISSLQPEDFATYYCMQWSGYPYTFGQGTKVEIK
0.00378 |  |  |  |  |  |  | anti-IL-6 Fab, heavy chain A105Q (Fab, V domains shown, built as m22 plus the named change) VH: EVQLVESGGGLVQPGGSLRLSCAASGFTFSPFAMSWVRQAPGKGLEWVAKISPGGSWTYYSDTVTGRFTFSLDTSKSTAYLQMNSLRAEDTAVYYCARQLWGYYQLDIWGQGTLVTVSS VL: DIQLTQSPSSLSASVGDRVTITCSASISVSYMYWYQQKPGKAPKLLIYDMSNLASGVPSRFSGSGSGTDFTLTISSLQPEDFATYYCMQWSGYPYTFGQGTKVEIK
0.00245 |  |  |  |  |  |  | anti-IL-6 Fab, heavy chain L100Q (Fab, V domains shown, built as m22 plus the named change) VH: EVQLVESGGGLVQPGGSLRLSCAASGFTFSPFAMSWVRQAPGKGLEWVAKISPGGSWTYYSDTVTGRFTFSLDTSKSTAYLQMNSLRAEDTAVYYCARQQWGYYALDIWGQGTLVTVSS VL: DIQLTQSPSSLSASVGDRVTITCSASISVSYMYWYQQKPGKAPKLLIYDMSNLASGVPSRFSGSGSGTDFTLTISSLQPEDFATYYCMQWSGYPYTFGQGTKVEIK
0.00385 |  |  |  |  |  |  | anti-IL-6 Fab, heavy chain Q99A (Fab, V domains shown, built as m22 plus the named change) VH: EVQLVESGGGLVQPGGSLRLSCAASGFTFSPFAMSWVRQAPGKGLEWVAKISPGGSWTYYSDTVTGRFTFSLDTSKSTAYLQMNSLRAEDTAVYYCARALWGYYALDIWGQGTLVTVSS VL: DIQLTQSPSSLSASVGDRVTITCSASISVSYMYWYQQKPGKAPKLLIYDMSNLASGVPSRFSGSGSGTDFTLTISSLQPEDFATYYCMQWSGYPYTFGQGTKVEIK
 | 0.113 | 0.000178 | 1.57e+06 | 0.215 | 0.000392 | 1.83e+06 | anti-IL-6 antibody, heavy chain G66D / light chain WT (antibody, human IgG1, V domains shown, Derived as m2; Engineered human IgG1) VH: EVQLVESGGGLVQPGGSLRLSCAASGFTFSPFAMSWVRQAPGKGLEWVAKISPGGSWTYYSDTVTDRFTFSLDTSKSTAYLQMNSLRAEDTAVYYCARQLWGYYALDIWGQGTLVTVSS VL: DIQLTQSPSSLSASVGDRVTITCSASISVSYMYWYQQKPGKAPKLLIYDMSNLASGVPSRFSGSGSGTDFTLTISSLQPEDFATYYCMQWSGYPYTFGQGTKVEIK
 | 0.105 | 0.000185 | 1.77e+06 | 0.136 | 0.000397 | 2.92e+06 | anti-IL-6 antibody, heavy chain S35H, G66D / light chain WT (antibody, human IgG1, V domains shown, Derived as m2; Engineered human IgG1) VH: EVQLVESGGGLVQPGGSLRLSCAASGFTFSPFAMHWVRQAPGKGLEWVAKISPGGSWTYYSDTVTDRFTFSLDTSKSTAYLQMNSLRAEDTAVYYCARQLWGYYALDIWGQGTLVTVSS VL: DIQLTQSPSSLSASVGDRVTITCSASISVSYMYWYQQKPGKAPKLLIYDMSNLASGVPSRFSGSGSGTDFTLTISSLQPEDFATYYCMQWSGYPYTFGQGTKVEIK
 | 0.147 | 0.000252 | 1.72e+06 | 0.178 | 0.000464 | 2.61e+06 | anti-IL-6 antibody, heavy chain T63E, G66D / light chain WT (antibody, human IgG1, V domains shown, Derived as m2; Engineered human IgG1) VH: EVQLVESGGGLVQPGGSLRLSCAASGFTFSPFAMSWVRQAPGKGLEWVAKISPGGSWTYYSDEVTDRFTFSLDTSKSTAYLQMNSLRAEDTAVYYCARQLWGYYALDIWGQGTLVTVSS VL: DIQLTQSPSSLSASVGDRVTITCSASISVSYMYWYQQKPGKAPKLLIYDMSNLASGVPSRFSGSGSGTDFTLTISSLQPEDFATYYCMQWSGYPYTFGQGTKVEIK
 | 0.161 | 0.000235 | 1.46e+06 | 0.185 | 0.000461 | 2.49e+06 | anti-IL-6 antibody, heavy chain T63K, G66D / light chain WT (antibody, human IgG1, V domains shown, Derived as m2; Engineered human IgG1) VH: EVQLVESGGGLVQPGGSLRLSCAASGFTFSPFAMSWVRQAPGKGLEWVAKISPGGSWTYYSDKVTDRFTFSLDTSKSTAYLQMNSLRAEDTAVYYCARQLWGYYALDIWGQGTLVTVSS VL: DIQLTQSPSSLSASVGDRVTITCSASISVSYMYWYQQKPGKAPKLLIYDMSNLASGVPSRFSGSGSGTDFTLTISSLQPEDFATYYCMQWSGYPYTFGQGTKVEIK
 | 0.193 | 0.000251 | 1.3e+06 | 0.203 | 0.000408 | 2.01e+06 | anti-IL-6 antibody, heavy chain T63Q, G66D / light chain WT (antibody, human IgG1, V domains shown, Derived as m2; Engineered human IgG1) VH: EVQLVESGGGLVQPGGSLRLSCAASGFTFSPFAMSWVRQAPGKGLEWVAKISPGGSWTYYSDQVTDRFTFSLDTSKSTAYLQMNSLRAEDTAVYYCARQLWGYYALDIWGQGTLVTVSS VL: DIQLTQSPSSLSASVGDRVTITCSASISVSYMYWYQQKPGKAPKLLIYDMSNLASGVPSRFSGSGSGTDFTLTISSLQPEDFATYYCMQWSGYPYTFGQGTKVEIK
 | 0.148 | 0.000262 | 1.77e+06 | 0.158 | 0.000517 | 3.28e+06 | anti-IL-6 antibody, heavy chain T65Q, G66D / light chain WT (antibody, human IgG1, V domains shown, Derived as m2; Engineered human IgG1) VH: EVQLVESGGGLVQPGGSLRLSCAASGFTFSPFAMSWVRQAPGKGLEWVAKISPGGSWTYYSDTVQDRFTFSLDTSKSTAYLQMNSLRAEDTAVYYCARQLWGYYALDIWGQGTLVTVSS VL: DIQLTQSPSSLSASVGDRVTITCSASISVSYMYWYQQKPGKAPKLLIYDMSNLASGVPSRFSGSGSGTDFTLTISSLQPEDFATYYCMQWSGYPYTFGQGTKVEIK
 |  |  |  | 0.222 | 0.000444 | 2e+06 | anti-IL-6 antibody, heavy chain T65R, G66D / light chain WT (antibody, human IgG1, V domains shown, Derived as m2; Engineered human IgG1) VH: EVQLVESGGGLVQPGGSLRLSCAASGFTFSPFAMSWVRQAPGKGLEWVAKISPGGSWTYYSDTVRDRFTFSLDTSKSTAYLQMNSLRAEDTAVYYCARQLWGYYALDIWGQGTLVTVSS VL: DIQLTQSPSSLSASVGDRVTITCSASISVSYMYWYQQKPGKAPKLLIYDMSNLASGVPSRFSGSGSGTDFTLTISSLQPEDFATYYCMQWSGYPYTFGQGTKVEIK
 |  |  |  | 0.21 | 0.000383 | 1.82e+06 | anti-IL-6 antibody, heavy chain T65S, G66D / light chain WT (antibody, human IgG1, V domains shown, Derived as m2; Engineered human IgG1) VH: EVQLVESGGGLVQPGGSLRLSCAASGFTFSPFAMSWVRQAPGKGLEWVAKISPGGSWTYYSDTVSDRFTFSLDTSKSTAYLQMNSLRAEDTAVYYCARQLWGYYALDIWGQGTLVTVSS VL: DIQLTQSPSSLSASVGDRVTITCSASISVSYMYWYQQKPGKAPKLLIYDMSNLASGVPSRFSGSGSGTDFTLTISSLQPEDFATYYCMQWSGYPYTFGQGTKVEIK
 |  |  |  | 0.175 | 0.000504 | 2.88e+06 | anti-IL-6 antibody, heavy chain T65V, G66D / light chain WT (antibody, human IgG1, V domains shown, Derived as m2; Engineered human IgG1) VH: EVQLVESGGGLVQPGGSLRLSCAASGFTFSPFAMSWVRQAPGKGLEWVAKISPGGSWTYYSDTVVDRFTFSLDTSKSTAYLQMNSLRAEDTAVYYCARQLWGYYALDIWGQGTLVTVSS VL: DIQLTQSPSSLSASVGDRVTITCSASISVSYMYWYQQKPGKAPKLLIYDMSNLASGVPSRFSGSGSGTDFTLTISSLQPEDFATYYCMQWSGYPYTFGQGTKVEIK
 |  |  |  | 0.226 | 0.00037 | 1.64e+06 | anti-IL-6 antibody, heavy chain T65W, G66D / light chain WT (antibody, human IgG1, V domains shown, Derived as m2; Engineered human IgG1) VH: EVQLVESGGGLVQPGGSLRLSCAASGFTFSPFAMSWVRQAPGKGLEWVAKISPGGSWTYYSDTVWDRFTFSLDTSKSTAYLQMNSLRAEDTAVYYCARQLWGYYALDIWGQGTLVTVSS VL: DIQLTQSPSSLSASVGDRVTITCSASISVSYMYWYQQKPGKAPKLLIYDMSNLASGVPSRFSGSGSGTDFTLTISSLQPEDFATYYCMQWSGYPYTFGQGTKVEIK
 |  |  |  | 0.224 | 0.000361 | 1.61e+06 | anti-IL-6 antibody, heavy chain T65Y, G66D / light chain WT (antibody, human IgG1, V domains shown, Derived as m2; Engineered human IgG1) VH: EVQLVESGGGLVQPGGSLRLSCAASGFTFSPFAMSWVRQAPGKGLEWVAKISPGGSWTYYSDTVYDRFTFSLDTSKSTAYLQMNSLRAEDTAVYYCARQLWGYYALDIWGQGTLVTVSS VL: DIQLTQSPSSLSASVGDRVTITCSASISVSYMYWYQQKPGKAPKLLIYDMSNLASGVPSRFSGSGSGTDFTLTISSLQPEDFATYYCMQWSGYPYTFGQGTKVEIK
 | 0.226 | 0.000128 | 565000 | 0.381 | 0.000255 | 670000 | anti-IL-6 antibody, heavy chain WT / light chain WT (antibody, human IgG1, V domains shown, Full antibody on an engineered human IgG1 framework, Fc with L234A, L235A, G237A and L443C (EU numbering), expressed in Expi293 cells; also called wild-type; parent molecule) VH: EVQLVESGGGLVQPGGSLRLSCAASGFTFSPFAMSWVRQAPGKGLEWVAKISPGGSWTYYSDTVTGRFTFSLDTSKSTAYLQMNSLRAEDTAVYYCARQLWGYYALDIWGQGTLVTVSS VL: DIQLTQSPSSLSASVGDRVTITCSASISVSYMYWYQQKPGKAPKLLIYDMSNLASGVPSRFSGSGSGTDFTLTISSLQPEDFATYYCMQWSGYPYTFGQGTKVEIK
